Measured values taken from US20090004190A1 (published 2009).
Blank lines part the entries; values can stand above or below the binder they belong to.

Legend:
[1] = target: T1, Amyloid Beta (1-40) from Biosource (UniProt P05067 672-711); assay: plate ELISA, immobilized ligand, dilutions of fusion protein, absorbance at 405 nm
T1 construct: domain: Amyloid Beta (1-40); Immobilized on Maxisorb plates at 5 micrograms per well; also called Abeta; A-beta
Procedure: (§1) Known RAGE ligands were coated onto the surface of Maxisorb plates at a concentration of 5 micrograms per well. Plates were incubated at 4° C. overnight. Following ligand incubation, plates were aspirated and a blocking buffer of 1% BSA in 50 mM imidizole buffer (pH 7.2) was added to the plates for 1 hour at room temperature. The plates were then aspirated and/or washed with wash buffer (20 mM Imidizole, 150 mM NaCl, 0.05% Tween-20, 5 mM CaCl₂ and 5 mM MgCl₂, pH 7.2). […] The RAGE fusion protein was added at increasing dilutions of the initial sample. The RAGE fusion protein was allowed to incubate with the immobilized ligand at 37° C. for one hour after which the plate was washed and assayed for binding of the RAGE fusion protein. Binding was detected by the addition of an immunodetection complex containing a monoclonal mouse anti-human IgG1 diluted 1:11,000 to a final assay concentration (FAC) of 21 ng/100 μL, a biotinylated goat anti-mouse IgG diluted 1:500, to a FAC of […], and an avidin-linked alkaline phosphatase. […] Binding of the complex to the immobilized RAGE fusion protein was quantified by measuring conversion of PNPP to para-nitrophenol (PNP) which was measured spectrophotometrically at 405 nm.

BSA = target: T2, BSA (UniProt P02769 25-607); assay: plate ELISA, BSA-only coating, detection with anti-human IgG1 complex, absorbance at 405 nm
T2 construct: Negative control coating; also called BSA coating alone; BSA+wash
Procedure: as §1

[2] = target: T1, Amyloid Beta (1-40) from Biosource; assay: plate assay, immobilized ligand (A beta=Amyloid beta 1-40), fusion protein 0 to 360 nM, anti-IgG polyclonal antibody with alkaline phosphatase
Procedure: The ligands are immobilized on a microtiter plate and incubated in the presence of increasing concentrations of RAGE fusion protein from 0 to 360 nM. The RAGE fusion protein-ligand interaction is detected using a polyclonal antibody conjugated with alkaline phosphatase that is specific for the IgG portion of the fusion chimera. […] HMG1B=Ampoterin, CML=Carboxymethyl Lysine, A beta=Amyloid beta 1-40.

T2 sequence (P02769 25-607 limits assumed): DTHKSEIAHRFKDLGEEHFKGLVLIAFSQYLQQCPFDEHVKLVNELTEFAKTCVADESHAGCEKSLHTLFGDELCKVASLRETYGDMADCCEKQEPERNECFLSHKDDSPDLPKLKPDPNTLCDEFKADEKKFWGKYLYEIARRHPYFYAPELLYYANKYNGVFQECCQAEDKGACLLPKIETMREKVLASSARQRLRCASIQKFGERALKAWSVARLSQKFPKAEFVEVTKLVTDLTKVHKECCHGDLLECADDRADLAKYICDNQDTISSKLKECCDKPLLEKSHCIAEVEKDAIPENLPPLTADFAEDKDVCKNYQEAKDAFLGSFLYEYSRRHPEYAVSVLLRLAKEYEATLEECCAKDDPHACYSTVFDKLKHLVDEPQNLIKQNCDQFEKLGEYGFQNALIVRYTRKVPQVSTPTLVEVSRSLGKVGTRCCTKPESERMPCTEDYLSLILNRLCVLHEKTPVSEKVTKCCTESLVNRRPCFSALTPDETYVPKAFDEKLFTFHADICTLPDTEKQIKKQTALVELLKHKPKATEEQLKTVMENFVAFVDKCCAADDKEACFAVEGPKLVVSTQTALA
T1 sequence (P05067 672-711 limits assumed): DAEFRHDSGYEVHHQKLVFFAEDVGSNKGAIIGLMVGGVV

binding result [1]: binds
binding result (BSA): no binding
B1: RAGE fusion protein TTP-3000 (Fc fusion)
chain: QNITARIGEPLVLKCKGAPKKPPQRLEWKLNTGRTEAWKVLSPQGGGPWDSVARVLPNGSLFLPAVGIQDEGIFRCQAMNRNGKETKSNYRVRVYQIPGKPEIVDSASELTAGPSVFLFPPKPKDTLMISRTPEVTCVVVDVSHEDPEVKFNWYVDGVEVHNAKTKPREEQYNSTYRVVSVLTVLHQDWLNGKEYKCKVSNKALPAPIEKTISKAKGQPREPQVYTLPPSRDELTKNQVSLTCLVKGFYPSDIAVEWESNGQPENNYKTTPPVLDSDGSFFLYSKLTVDKSRWQQGNVFSCSVMHEALHNHYTQKSLSLSPGK
notes: also called TT3; three domain RAGE fusion protein

binding result (BSA): no binding
binding result [2]: binds
B2: RAGE fusion protein TTP-4000 (Fc fusion)
chain: QNITARIGEPLVLKCKGAPKKPPQRLEWKLNTGRTEAWKVLSPQGGGPWDSVARVLPNGSLFLPAVGIQDEGIFRCQAMNRNGKETKSNYRVRVYQIPGKPEIVDSASELTAGVPNKVGTCVSEGSYPAGTLSWHLDGKPLVPNEKGVSVKEQTRRHPETGLFTLQSELMVTPARGGDPRPTFSCSFSPGLPRHRALRTAPIQPRVWEPVPLEEVQLVVEPEGGAVAPPSVFLFPPKPKDTLMISRTPEVTCVVVDVSHEDPEVKFNWYVDGVEVHNAKTKPREEQYNSTYRVVSVLTVLHQDWLNGKEYKCKVSNKALPAPIEKTISKAKGQPREPQVYTLPPSRDELTKNQVSLTCLVKGFYPSDIAVEWESNGQPENNYKTTPPVLDSDGSFFLYSKLTVDKSRWQQGNVFSCSVMHEALHNHYTQKSLSLSPGK
modifications: N-terminal residue glutamine (Q) or pyroglutamic acid (pE) or a mixture thereof; glycosylation sites at N2 and N288 (numbering of SEQ ID NO: 34 or 56); C-terminal residue of CH3 may be cleaved off
notes: No immunoglobulin hinge; Made in CHO cells, purified on Protein A; also called TT4; four domain RAGE fusion protein
